Target: T1, TAT419 polypeptide (human, UniProt P24530 27-442)
T1 construct: Full-length TAT419 on transfected cells (e.g. 293 cells) or on TAT419-expressing human melanoma cell lines; also called full-length TAT419 polypeptide; cell surface expressed TAT419 polypeptide
T1 sequence: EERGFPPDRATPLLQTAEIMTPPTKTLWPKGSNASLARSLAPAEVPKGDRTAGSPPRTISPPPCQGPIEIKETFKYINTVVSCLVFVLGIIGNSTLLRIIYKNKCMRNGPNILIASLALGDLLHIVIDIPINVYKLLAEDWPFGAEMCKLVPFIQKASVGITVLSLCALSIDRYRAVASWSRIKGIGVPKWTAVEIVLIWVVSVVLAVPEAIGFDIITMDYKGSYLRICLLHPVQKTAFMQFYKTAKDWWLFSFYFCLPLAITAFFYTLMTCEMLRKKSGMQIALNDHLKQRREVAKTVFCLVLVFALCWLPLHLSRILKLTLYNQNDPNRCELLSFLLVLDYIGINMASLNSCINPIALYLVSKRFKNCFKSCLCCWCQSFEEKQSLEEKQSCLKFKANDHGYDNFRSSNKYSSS
Assay: Western blots, TAT419-derived peptide variants expressed in 293 cells
Experimental: Binding analysis was also conducted to identify the approximate location of the epitopes. Several TAT419-derived peptide variants were expressed in 293 cells. Western blots were carried out using various of the murine anti-TAT419 monoclonal antibodies described herein.

B1: murine anti-TAT419 monoclonal antibody 5E9 (antibody, mouse IgG2a, kappa, V domains shown)
VH: QVQLLQSGAELARPGASVKLSCKASGYTFTSYWMQWVKQRPGQGLEWIGTIYPGDGDTSYAQKFKGKATLTTDKYSSTAYMQLSSLASEDSAVYYCARWGYAYDIDNWGQGTTVTVSS
VL: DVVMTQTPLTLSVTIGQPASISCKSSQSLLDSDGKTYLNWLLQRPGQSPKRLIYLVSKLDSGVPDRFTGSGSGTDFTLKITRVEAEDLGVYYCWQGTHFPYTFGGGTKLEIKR
notes: also called murine 5E9
**Q.** Does B1 bind?
**A.** binds

B2: humanized anti-TAT419 antibody hu5E9.v1 (antibody, human IgG1, kappa, V domains shown)
VH: EVQLVESGGGLVQPGGSLRLSCAASGYTFTSYWMQWVRQAPGKGLEWIGTIYPGDGDTSYAQKFKGRATLSTDKSKNTAYLQMNSLRAEDTAVYYCARWGYAYDIDNWGQGTLVTVSS
VL: DIQMTQSPSSLSASVGDRVTITCKSSQSLLDSDGKTYLNWLQQKPGKAPKRLIYLVSKLDSGVPSRFSGSGSGTDFTLTISSLQPEDFATYYCWQGTHFPYTFGQGTKVEIKR
**Q.** Does B2 bind?
**A.** binds
